Reference: patent publication US20160311908A1 (MERRIMACK PHARMACEUTICALS, published 2016)

Molecular target: murine EGFR (murine, UniProt Q01279 25-647, limits assumed)
Experiment: not described (statement in the xenograft methods)

binding result: no binding
B1: P3X (antibody, V domains shown)
VH: QVQLVQSGAEVKKPGASVKVSCKASGYAFTSYGINWVRQAPGQGLEWMGWISAYNGNTYYAQKLRGRVTMTTDTSTSTAYMELRSLRSDDTAVYYCARDLGGYGSGSVPFDPWGQGTLVTVSS
VL: EIVMTQSPATLSVSPGERATLSCRASQSVSSNLAWYQQKPGQAPRLLIYGASTRATGIPARFSGSGSGTEFTLTISSLQSEDFAVYYCQDYRTWPRRVFGGGTKVEIK
notes: Fully human monoclonal antibody; Alexa Fluor 488-labelled in flow cytometry; also called P3X monoclonal antibody; third monoclonal antibody
